In the Human Domainome abundance scans (Beltran et al. 2025):
± gives the uncertainty stated by the source.

B1: Nucleosome-remodeling factor subunit BPTF, residues 2862 to 2918; numbered along this chain, Q12830 (parent)
chain: TKKDTKLYCICKTPYDESKFYIGCDRCQNWYHGRCVGILQSEAELIDEYVCPQCQST

Variants of: B1
Experiment: abundance fitness (aPCA) (normalised: wild type 0, dead -1); higher = more abundant; growth selection in yeast, the domain comes from the species named
Settings: Homo sapiens

Variant | abundance fitness
TKKDTKLYCICKTPYDESKFYIGCDRCQNWYHGRCVGILQSEAELIFEYVCPQCQST [D47F] | -0.219 ± 0.13
TKKDTKLYCICKTPYDESKFYIGCDRCQNWYHGRCVGILQSEAELIGEYVCPQCQST [D47G] | 0.054 ± 0.068
TKKDTKLYCICKTPYDESKFYIGCDRCQNWYHGRCVGILQSEAELIHEYVCPQCQST [D47H] | 0.134 ± 0.14
TKKDTKLYCICKTPYDESKFYIGCDRCQNWYHGRCVGILQSEAELIIEYVCPQCQST [D47I] | -0.227 ± 0.18
TKKDTKLYCICKTPYDESKFYIGCDRCQNWYHGRCVGILQSEAELIKEYVCPQCQST [D47K] | 0.089 ± 0.093
TKKDTKLYCICKTPYDESKFYIGCDRCQNWYHGRCVGILQSEAELILEYVCPQCQST [D47L] | -0.058 ± 0.072
TKKDTKLYCICKTPYDESKFYIGCDRCQNWYHGRCVGILQSEAELIMEYVCPQCQST [D47M] | -0.14 ± 0.14
TKKDTKLYCICKTPYDESKFYIGCDRCQNWYHGRCVGILQSEAELINEYVCPQCQST [D47N] | -0.03 ± 0.087
TKKDTKLYCICKTPYDESKFYIGCDRCQNWYHGRCVGILQSEAELIPEYVCPQCQST [D47P] | -0.107 ± 0.12
TKKDTKLYCICKTPYDESKFYIGCDRCQNWYHGRCVGILQSEAELIQEYVCPQCQST [D47Q] | 0.077 ± 0.1
TKKDTKLYCICKTPYDESKFYIGCDRCQNWYHGRCVGILQSEAELIREYVCPQCQST [D47R] | -0.044 ± 0.071
TKKDTKLYCICKTPYDESKFYIGCDRCQNWYHGRCVGILQSEAELISEYVCPQCQST [D47S] | -0.053 ± 0.067
TKKDTKLYCICKTPYDESKFYIGCDRCQNWYHGRCVGILQSEAELITEYVCPQCQST [D47T] | -0.051 ± 0.092
TKKDTKLYCICKTPYDESKFYIGCDRCQNWYHGRCVGILQSEAELIVEYVCPQCQST [D47V] | -0.138 ± 0.088
TKKDTKLYCICKTPYDESKFYIGCDRCQNWYHGRCVGILQSEAELIWEYVCPQCQST [D47W] | -0.326 ± 0.12
TKKDTKLYCICKTPYDESKFYIGCDRCQNWYHGRCVGILQSEAELIDAYVCPQCQST [E48A] | -0.008 ± 0.095
TKKDTKLYCICKTPYDESKFYIGCDRCQNWYHGRCVGILQSEAELIDCYVCPQCQST [E48C] | -0.009 ± 0.099
TKKDTKLYCICKTPYDESKFYIGCDRCQNWYHGRCVGILQSEAELIDFYVCPQCQST [E48F] | -0.262 ± 0.11
TKKDTKLYCICKTPYDESKFYIGCDRCQNWYHGRCVGILQSEAELIDGYVCPQCQST [E48G] | -0.112 ± 0.095
TKKDTKLYCICKTPYDESKFYIGCDRCQNWYHGRCVGILQSEAELIDHYVCPQCQST [E48H] | -0.062 ± 0.11
TKKDTKLYCICKTPYDESKFYIGCDRCQNWYHGRCVGILQSEAELIDIYVCPQCQST [E48I] | -0.063 ± 0.12
TKKDTKLYCICKTPYDESKFYIGCDRCQNWYHGRCVGILQSEAELIDKYVCPQCQST [E48K] | -0.109 ± 0.12
TKKDTKLYCICKTPYDESKFYIGCDRCQNWYHGRCVGILQSEAELIDLYVCPQCQST [E48L] | -0.139 ± 0.083
TKKDTKLYCICKTPYDESKFYIGCDRCQNWYHGRCVGILQSEAELIDNYVCPQCQST [E48N] | 0.076 ± 0.14

Variant | abundance fitness
TKKDTKLYCICKTPYDESKFYIGCDRCQNWYHGRCVGILQSEAELIDPYVCPQCQST [E48P] | 0.086 ± 0.086
TKKDTKLYCICKTPYDESKFYIGCDRCQNWYHGRCVGILQSEAELIDQYVCPQCQST [E48Q] | -0.161 ± 0.12
TKKDTKLYCICKTPYDESKFYIGCDRCQNWYHGRCVGILQSEAELIDRYVCPQCQST [E48R] | 0.055 ± 0.07
TKKDTKLYCICKTPYDESKFYIGCDRCQNWYHGRCVGILQSEAELIDSYVCPQCQST [E48S] | 0.051 ± 0.088
TKKDTKLYCICKTPYDESKFYIGCDRCQNWYHGRCVGILQSEAELIDTYVCPQCQST [E48T] | -0.002 ± 0.096
TKKDTKLYCICKTPYDESKFYIGCDRCQNWYHGRCVGILQSEAELIDVYVCPQCQST [E48V] | -0.022 ± 0.09
TKKDTKLYCICKTPYDESKFYIGCDRCQNWYHGRCVGILQSEAELIDWYVCPQCQST [E48W] | -0.295 ± 0.12
TKKDTKLYCICKTPYDESKFYIGCDRCQNWYHGRCVGILQSEAELIDYYVCPQCQST [E48Y] | -0.125 ± 0.1
TKKDTKLYCICKTPYDESKFYIGCDRCQNWYHGRCVGILQSEAELIDEAVCPQCQST [Y49A] | -0.382 ± 0.094
TKKDTKLYCICKTPYDESKFYIGCDRCQNWYHGRCVGILQSEAELIDECVCPQCQST [Y49C] | -0.761 ± 0.18
TKKDTKLYCICKTPYDESKFYIGCDRCQNWYHGRCVGILQSEAELIDEDVCPQCQST [Y49D] | -0.715 ± 0.12
TKKDTKLYCICKTPYDESKFYIGCDRCQNWYHGRCVGILQSEAELIDEFVCPQCQST [Y49F] | -0.069 ± 0.11
TKKDTKLYCICKTPYDESKFYIGCDRCQNWYHGRCVGILQSEAELIDEGVCPQCQST [Y49G] | -0.526 ± 0.11
TKKDTKLYCICKTPYDESKFYIGCDRCQNWYHGRCVGILQSEAELIDEHVCPQCQST [Y49H] | -0.491 ± 0.17
TKKDTKLYCICKTPYDESKFYIGCDRCQNWYHGRCVGILQSEAELIDELVCPQCQST [Y49L] | -0.36 ± 0.075
TKKDTKLYCICKTPYDESKFYIGCDRCQNWYHGRCVGILQSEAELIDEMVCPQCQST [Y49M] | -0.481 ± 0.11
TKKDTKLYCICKTPYDESKFYIGCDRCQNWYHGRCVGILQSEAELIDEPVCPQCQST [Y49P] | -0.494 ± 0.13
TKKDTKLYCICKTPYDESKFYIGCDRCQNWYHGRCVGILQSEAELIDEQVCPQCQST [Y49Q] | -0.615 ± 0.15
TKKDTKLYCICKTPYDESKFYIGCDRCQNWYHGRCVGILQSEAELIDERVCPQCQST [Y49R] | -0.47 ± 0.085
TKKDTKLYCICKTPYDESKFYIGCDRCQNWYHGRCVGILQSEAELIDESVCPQCQST [Y49S] | -0.427 ± 0.075
TKKDTKLYCICKTPYDESKFYIGCDRCQNWYHGRCVGILQSEAELIDETVCPQCQST [Y49T] | -0.447 ± 0.1
TKKDTKLYCICKTPYDESKFYIGCDRCQNWYHGRCVGILQSEAELIDEVVCPQCQST [Y49V] | -0.381 ± 0.091
TKKDTKLYCICKTPYDESKFYIGCDRCQNWYHGRCVGILQSEAELIDEWVCPQCQST [Y49W] | -0.055 ± 0.12
